Reference: PMC6195611
Where “and” joins values, the source holds several entries; their conditions need not be identical. Identical values can stand only once.

Legend:
[1] = molecular target: wild type SAASoti (Stylocoeniella armata); assay: SEC; Superdex 200 10/300 GL, 20 mM Tris-HCl 150 mM NaCl pH 7.5, 0.5 ml/min, absorbance at 280 and 509 nm (the legend of Fig. 2 gives Tris-HCl 100 mM, CaCl2 10 mM, pH 7.6); wild type also run with DTT
[2] = molecular target: K149E SAASoti (Stylocoeniella armata); assay: as above
[3] = molecular target: K149E SAASoti (Stylocoeniella armata); assay: two-focus fluorescence correlation spectroscopy (2fFCS); diffusion coefficient; 10 mM phosphate buffer, 150 mM NaCl pH 7.4, ~10^-9 M protein, 25 °C
[4] = molecular target: K145N SAASoti (Stylocoeniella armata); assay: SEC; Superdex 200 10/300 GL, 20 mM Tris-HCl 150 mM NaCl pH 7.5, 0.5 ml/min, absorbance at 280 and 509 nm (the legend of Fig. 2 gives Tris-HCl 100 mM, CaCl2 10 mM, pH 7.6); wild type also run with DTT
[5] = molecular target: K145N SAASoti (Stylocoeniella armata); assay: two-focus fluorescence correlation spectroscopy (2fFCS); diffusion coefficient; 10 mM phosphate buffer, 150 mM NaCl pH 7.4, ~10^-9 M protein, 25 °C
[6] = molecular target: K145E SAASoti (Stylocoeniella armata); assay: SEC; Superdex 200 10/300 GL, 20 mM Tris-HCl 150 mM NaCl pH 7.5, 0.5 ml/min, absorbance at 280 and 509 nm (the legend of Fig. 2 gives Tris-HCl 100 mM, CaCl2 10 mM, pH 7.6); wild type also run with DTT
[7] = molecular target: K149N SAASoti (Stylocoeniella armata); assay: as above
[8] = molecular target: K149N SAASoti (Stylocoeniella armata); assay: two-focus fluorescence correlation spectroscopy (2fFCS); diffusion coefficient; 10 mM phosphate buffer, 150 mM NaCl pH 7.4, ~10^-9 M protein, 25 °C
[9] = molecular target: V127T SAASoti (Stylocoeniella armata); assay: SEC; V127T SAASoti at high concentration (0.22 mM)

Substance: wild type SAASoti (natural protein)
- stoichiometry N [1]: 4 and 8

Substance: K149E SAASoti (natural protein)
- stoichiometry N [2]: 4
- stoichiometry N [3]: 4

Substance: K145N SAASoti (natural protein)
- stoichiometry N [4]: 4
- stoichiometry N [5]: 4

Substance: K145E SAASoti (natural protein)
- stoichiometry N [6]: 4

Substance: K149N SAASoti (natural protein)
- stoichiometry N [7]: 4
- stoichiometry N [8]: 4

Substance: V127T SAASoti (natural protein)
- stoichiometry N [9]: 2
